Tests used:
[1] = molecular target: Anti-σ domain (ASD) of Mycobacterium tuberculosis RslA (residues 1–108), Zn2+-bound (Mycobacterium tuberculosis) (UniProt P9WJ67); assay: crystal structure
[2] = molecular target: RsrA (Streptomyces coelicolor) (UniProt Q7AKG8); conditions: cited from earlier work
RsrA (Streptomyces coelicolor), sequence (Q7AKG8 whole entry): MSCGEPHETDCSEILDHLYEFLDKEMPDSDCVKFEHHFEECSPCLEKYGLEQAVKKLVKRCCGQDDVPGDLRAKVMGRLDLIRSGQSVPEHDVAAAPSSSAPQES

Anti-σ domain (ASD) of Mycobacterium tuberculosis RslA (residues 1–108), Zn2+-bound (Mycobacterium tuberculosis), sequence (P9WJ67 1-108): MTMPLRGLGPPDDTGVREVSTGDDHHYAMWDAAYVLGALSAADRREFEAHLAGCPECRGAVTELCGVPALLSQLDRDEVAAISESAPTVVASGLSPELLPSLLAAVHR
σR, sequence (Q7AKG9 whole entry): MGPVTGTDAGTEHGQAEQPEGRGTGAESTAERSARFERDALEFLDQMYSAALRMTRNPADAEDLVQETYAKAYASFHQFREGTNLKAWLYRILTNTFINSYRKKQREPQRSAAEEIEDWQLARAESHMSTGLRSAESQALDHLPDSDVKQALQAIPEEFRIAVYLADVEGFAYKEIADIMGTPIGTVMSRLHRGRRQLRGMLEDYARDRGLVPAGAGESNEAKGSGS

Substance | stoichiometry N [1] | Kd [2] [nM]
σ4^L, the −35-element recognition domain of Mycobacterium tuberculosis σ^L (from UniProt P9WGH5 99-177) (domain or fragment) | 1 | 
σR (from UniProt Q7AKG9) |  | 10

Source: PMC2877774
